Biological target: recombinant human C5a (UniProt P01031)
Sequence (P01031 678-751): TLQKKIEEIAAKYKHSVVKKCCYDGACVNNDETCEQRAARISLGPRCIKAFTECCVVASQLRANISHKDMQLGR

ScpB, the C5a peptidase of GBS, on whole cells of strain COH1
C5a protease activity (C5a-stimulated PMN adherence to gelatin-coated plastic after preincubating C5a with GBS): Preincubation of C5a with COH1 or TOH121 abolished C5a activity

From patent publication US20050002950
